# B1: Monocarboxylate transporter 1 (Rattus norvegicus (Rat)), P53987 (parent)
# chain: MPPAIGGPVGYTPPDGGWGWAVVVGAFISIGFSYAFPKSITVFFKEIEIIFSATTSEVSWISSIMLAVMYAGGPISSILVNKYGSRPVMIAGGCLSGCGLIAASFCNTVQELYFCIGVIGGLGLAFNLNPALTMIGKYFYKKRPLANGLAMAGSPVFLSTLAPLNQAFFGIFGWRGSFLILGGLLLNCCVAGSLMRPIGPQQGKVEKLKSKESLQEAGKSDANTDLIGGSPKGEKLSVFQTVNKFLDLSLFTHRGFLLYLSGNVVMFFGLFTPLVFLSNYGKSKHFSSEKSAFLLSILAFVDMVARPSMGLAANTRWIRPRVQYFFAASVVANGVCHLLAPLSTTYVGFCIYAGVFGFAFGWLSSVLFETLMDLVGPQRFSSAVGLVTIVECCPVLLGPPLLGRLNDMYGDYKYTYWACGVILIIAGLYLFIGMGINYRLVAKEQKAEEKKRDGKEDETSTDVDEKPKKTMKETQSPAPLQNSSGDPAEEESPV
# B2: Basigin (Homo sapiens), P35613 (parent)
# chain: MAAALFVLLGFALLGTHGASGAAGFVQAPLSQQRWVGGSVELHCEAVGSPVPEIQWWFEGQGPNDTCSQLWDGARLDRVHIHATYHQHAASTISIDTLVEEDTGTYECRASNDPDRNHLTRAPRVKWVRAQAVVLVLEPGTVFTTVEDLGSKILLTCSLNDSATEVTGHRWLKGGVVLKEDALPGQKTEFKVDSDDQWGEYSCVFLPEPMGTANIQLHGPPRVKAVKSSEHINEGETAMLVCKSESVPPVTDWAWYKITDSEDKALMNGSESRFFVSSSQGRSELHIENLNMEADPGQYRCNGTSSKGSDQAIITLRVRSHLAALWPFLGIVAEVLVLVTIIFIYEKRRKPEDVLDDDDAGSAPLKSSGQHQNDKGKNVRQRNSS
# partner: B1 chain
# Key:
# basi_human BSG, P35613 [1] = variants of: B1; conditions: with basi_human BSG
# basi_human BSG, P35613 [2] = variants of: B1; conditions: with basi_human BSG; remark: listed apart in the source
# mot1_rat Slc16a1, P53987 [3] = variants of: B2; conditions: with mot1_rat Slc16a1, P53987
# mot1_rat Slc16a1, P53987 [4] = variants of: B2; conditions: with mot1_rat Slc16a1, P53987; remark: listed apart in the source
"effect of a mutation on the interaction (basi_human BSG, P35613 [1])","effect of a mutation on the interaction (basi_human BSG, P35613 [2])","effect of a mutation on the interaction (mot1_rat Slc16a1, P53987 [3])","effect of a mutation on the interaction (mot1_rat Slc16a1, P53987 [4])",Variant
with no effect,decreasing interaction strength,,,MPPAIGGPVGYTPPDGGWGWAVVVGAFISIGFSYAFPKSITVFFKEIEIIFSATTSEVSWISSIMLAVMYAGGPISSILVNKYGSEPVMIAGGCLSGCGLIAASFCNTVQELYFCIGVIGGLGLAFNLNPALTMIGKYFYKKRPLANGLAMAGSPVFLSTLAPLNQAFFGIFGWRGSFLILGGLLLNCCVAGSLMRPIGPQQGKVEKLKSKESLQEAGKSDANTDLIGGSPKGEKLSVFQTVNKFLDLSLFTHRGFLLYLSGNVVMFFGLFTPLVFLSNYGKSKHFSSEKSAFLLSILAFVDMVARPSMGLAANTRWIRPRVQYFFAASVVANGVCHLLAPLSTTYVGFCIYAGVFGFAFGWLSSVLFETLMDLVGPQRFSSAVGLVTIVECCPVLLGPPLLGRLNDMYGDYKYTYWACGVILIIAGLYLFIGMGINYRLVAKEQKAEEKKRDGKEDETSTDVDEKPKKTMKETQSPAPLQNSSGDPAEEESPV [R86E]
with no effect,decreasing interaction strength,,,MPPAIGGPVGYTPPDGGWGWAVVVGAFISIGFSYAFPKSITVFFKEIEIIFSATTSEVSWISSIMLAVMYAGGPISSILVNKYGSQPVMIAGGCLSGCGLIAASFCNTVQELYFCIGVIGGLGLAFNLNPALTMIGKYFYKKRPLANGLAMAGSPVFLSTLAPLNQAFFGIFGWRGSFLILGGLLLNCCVAGSLMRPIGPQQGKVEKLKSKESLQEAGKSDANTDLIGGSPKGEKLSVFQTVNKFLDLSLFTHRGFLLYLSGNVVMFFGLFTPLVFLSNYGKSKHFSSEKSAFLLSILAFVDMVARPSMGLAANTRWIRPRVQYFFAASVVANGVCHLLAPLSTTYVGFCIYAGVFGFAFGWLSSVLFETLMDLVGPQRFSSAVGLVTIVECCPVLLGPPLLGRLNDMYGDYKYTYWACGVILIIAGLYLFIGMGINYRLVAKEQKAEEKKRDGKEDETSTDVDEKPKKTMKETQSPAPLQNSSGDPAEEESPV [R86Q]
disrupting interaction strength,,,,MPPAIGGPVGYTPPDGGWGWAVVVGAFISIGFSYAFPKSITVFFKEIEIIFSATTSEVSWISSIMLAVMYAGGPISSILVNKYGSRPVMIAGGCLSGCGLIAASFCNTVQELYFCIGVIGGLGLAFNLNPALTMIGKYFYKKRPLANGLAMAGSPVFLSTLAPLNQAFFGIFGWRGSFLILGGLLLNCCVAGSLMEPIGPQQGKVEKLKSKESLQEAGKSDANTDLIGGSPKGEKLSVFQTVNKFLDLSLFTHRGFLLYLSGNVVMFFGLFTPLVFLSNYGKSKHFSSEKSAFLLSILAFVDMVARPSMGLAANTRWIRPRVQYFFAASVVANGVCHLLAPLSTTYVGFCIYAGVFGFAFGWLSSVLFETLMDLVGPQRFSSAVGLVTIVECCPVLLGPPLLGRLNDMYGDYKYTYWACGVILIIAGLYLFIGMGINYRLVAKEQKAEEKKRDGKEDETSTDVDEKPKKTMKETQSPAPLQNSSGDPAEEESPV [R196E]
,,decreasing interaction strength,,MAAALFVLLGFALLGTHGASGAAGFVQAPLSQQRWVGGSVELHCEAVGSPVPEIQWWFEGQGPNDTCSQLWDGARLDRVHIHATYHQHAASTISIDTLVEEDTGTYECRASNDPDRNHLTRAPRVKWVRAQAVVLVLEPGTVFTTVEDLGSKILLTCSLNDSATEVTGHRWLKGGVVLKEDALPGQKTEFKVDSDDQWGEYSCVFLPEPMGTANIQLHGPPRVKAVKSSEHINEGETAMLVCKSESVPPVTDWAWYKITDSEDKALMNGSESRFFVSSSQGRSELHIENLNMEADPGQYRCNGTSSKGSDQAIITLRVRSHLAALWPFLGIVARVLVLVTIIFIYEKRRKPEDVLDDDDAGSAPLKSSGQHQNDKGKNVRQRNSS [E334R]
,,decreasing interaction strength,with no effect,MAAALFVLLGFALLGTHGASGAAGFVQAPLSQQRWVGGSVELHCEAVGSPVPEIQWWFEGQGPNDTCSQLWDGARLDRVHIHATYHQHAASTISIDTLVEEDTGTYECRASNDPDRNHLTRAPRVKWVRAQAVVLVLEPGTVFTTVEDLGSKILLTCSLNDSATEVTGHRWLKGGVVLKEDALPGQKTEFKVDSDDQWGEYSCVFLPEPMGTANIQLHGPPRVKAVKSSEHINEGETAMLVCKSESVPPVTDWAWYKITDSEDKALMNGSESRFFVSSSQGRSELHIENLNMEADPGQYRCNGTSSKGSDQAIITLRVRSHLAALWPFLGIVAQVLVLVTIIFIYEKRRKPEDVLDDDDAGSAPLKSSGQHQNDKGKNVRQRNSS [E334Q]
